Laboratory results published in article PMC6553764.

Target: FSFG6 (a segment of Nsp1FG that contains six repeats of the FxFG-type region) (S. cerevisiae)
Assay: SPR; XPR36 (BioRad), GLC chip; FG construct conjugated by its C-terminal cysteine to maleimide surface, quenched with beta-mercaptoethanol; analyte in TBT-PVP at 100 μl/min, association 15-120 s, dissociation 10 min, 25°C

In the case of “Kap95 (without the GST domain) (from UniProt Q06142 1-861) (natural protein)”, the fastest association rate estimated from the kinetic model fits is reported as 3e+06 M⁻¹ s⁻¹.
